Reference: US20240101668A1 (WUGEN, published 2024)
Positions count from the first letter of the chain named.

B1: Polypeptide No. 91 (scFv, V domains shown)
VH: QVQLVQSGAEVKKPGASVKVSCKASGGTFSSYAISWVRQAPGQGLEWMGWMNPNSGNTGYAQKFQGRVTMTRDTSTSTVYMELSSLRSEDTAVYYCAREDYYDSSGNFDYWGQGTLVTVSS
VL: DIQMTQSPSSLSASVGDRVTITCQASHDINIHLNWYQQKPGKAPKLLIYDASNLETGVPSRFSGSGSGTDFTLTISSLQPEDFATYYCQQAYSLPWTFGQGTKVEIKR
notes: scFv
B2: Polypeptide No. 191 (scFv, V domains shown)
VH: B1 VH
VL: B1 VL
notes: scFv
B3: Polypeptide No. 108 (scFv, V domains shown)
VH: QVQLVQSGAEVKKPGASVKVSCKASGYTFTNYDINWVRQAPGQGLEWMGWMNPNSGNTGLVEKFQGRVTMTRDTSTSTVYMELSSLRSEDTAVYYCARGWGHGYGDYKFDYWGQGTLVTVSS
VL: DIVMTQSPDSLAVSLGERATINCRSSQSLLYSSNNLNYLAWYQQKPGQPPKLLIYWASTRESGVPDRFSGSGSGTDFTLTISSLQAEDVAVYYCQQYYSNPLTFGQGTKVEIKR
notes: scFv
B4: Polypeptide No. 89 (scFv, V domains shown)
VH: QVQLVQSGAEVKKPGASVKVSCKASGYTFTNYYMHWVRQAPGQGLEWMGWINPNSGDTNYEQKFQGRVTMTRDTSTSTVYMELSSLRSEDTAVYYCARDDRIQLWVPLVFWGQGTLVTVSS
VL: DIQMTQSPSSLSASVGDRVTITCRASQGISNYLAWYQQKPGKAPKLLIYSASNLQSGVPSRFSGSGSGTDFTLTISSLQPEDFATYYCQQSFSTPFTFGQGTKLEIKR
notes: scFv
B5: Polypeptide No. 193 (scFv, V domains shown)
VH: EVQLLESGGGLVQPGGSLRLSCAASGFTFSNSDMNWVRQAPGKGLEWVSYISGTGSTIYYADSVKGRFTISRDNSKNTLYLQMNSLRAEDTAVYYCAKDYDSSYGSGYYGMDVWGQGTTVTVSS
VL: B4 VL with G28S, S30Y, A34N, S50A, S91Y, F92G, S93N, T94A, F96L, L104V
notes: scFv
B6: Polypeptide No. 192 (scFv, V domains shown)
VH: B4 VH
VL: B4 VL
notes: scFv
B7: Polypeptide No. 100 (scFv, V domains shown)
VH: QVQLVQSGAEVKKPGASVKVSCKASGATRSWMHWVRQAPGQGLEWMGIINPSGDSTSYAQKFQGRVTMTRDTSTSTVYMELSSLRSEDTAVYYCAKEPYSSSPYYFDYWGQGTLVTVSS
VL: B4 VL with G28S, N31S, Y32W, S50G, N53S, F92Y, S93T, F96I, K103R
notes: scFv
B8: Polypeptide No. 90 (scFv, V domains shown)
VH: B5 VH
VL: B4 VL with G28S, S30Y, A34N, S50A, S91Y, F92G, S93N, T94A, F96L, L104V
notes: scFv
B9: Polypeptide No. 144 (scFv, V domains shown)
VH: QVQLVQSGAEVKKPGASVKVSCKASGYTFTAYYMHWVRQAPGQGLEWMGIIDPSGGSTSYAQQFQGRVTMTRDTSTSTVYMELSSLRSEDTAVYYCARGDYGDYHTLWGQGTLVTVSS
VL: B4 VL with N31S, S50D, N53S, F92Y, F96I, Q100P, L104V, E105D
notes: scFv
B10: Polypeptide No. 145 (scFv, V domains shown)
VH: QVQLVQSGAEVKKPGASVKVSCKASGGTFSTSYMHWVRQAPGQGLEWMGWIHPDDGNTDYAPKFQGRVTMTRDTSTSTVYMELSSLRSEDTAVYYCARDLGDYDTFDIWGQGTMVTVSS
VL: B4 VL with A25V, N31S, A34N, S50D, S56A, F92Y, F96P, L104V
notes: scFv
B11: Polypeptide No. 210 (scFv, V domains shown)
VH: QVQLVQSGAEVKKPGSSVKVSCKASGYTLTELSMHWVRQAPGQGLEWMGGIIPISGTTKYAQKFQGRVTITADESTSTAYMELSSLRSEDTAVYYCARASPRYYMDVWGKGTTVTVSS
VL: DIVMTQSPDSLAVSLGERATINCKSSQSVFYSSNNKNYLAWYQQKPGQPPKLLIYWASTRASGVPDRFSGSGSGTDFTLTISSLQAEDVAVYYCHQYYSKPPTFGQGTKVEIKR
notes: scFv
B12: Polypeptide No. 224 (scFv, V domains shown)
VH: QVQLVQSGAEVKKPGSSVKVSCKASGYTFTGYYMHWVRQAPGQGLEWMGVINPIYGTANYALKFQGRVTITADESTSTAYMELSSLRSEDTAVYYCAKAISSGWSNDAFDIWGQGTMVTVSS
VL: EIVMTQSPATLSVSPGERATLSCRASQSVSSDFLAWYQQKPGQAPRLLIYDTSSRASGIPARFSGSGSGTEFTLTISSLQSEDFAVYYCQQYAGPPTFGQGTRLEIKR
notes: scFv
B13: Polypeptide No. 245 (scFv, V domains shown)
VH: QVQLVQSGAEVKKPGSSVKVSCKASGYTFTGFYIHWVRQAPGQGLEWMGGVIPFFSRTIYAQKFQGRVTITADESTSTAYMELSSLRSEDTAVYYCAYGANGHLYGMDAWGQGTTVTVSS
VL: EIVMTQSPATLSVSPGERATLSCRASQSVSSSYLAWYQQKPGQAPRLLIYGASTRATGIPARFSGSGSGTEFTLTISSLQSEDFAVYYCQQYSSSPLTFGQGTKVEIKR
notes: scFv
B14: Polypeptide No. 286 (scFv, V domains shown)
VH: QVQLVQSGAEVKKPGASVKVSCKASGYTFTSYGISWVRQAPGQGLEWMGWISPNSGVTNYAQKFQGRVTMTRDTSTSTVYMELSSLRSEDTAVYYCVSDDYGAFDYWGQGTLVTVSS
VL: B13 VL with G51D, A52V, T57S, S93N, S94N, S95W, L97Y, V105L
notes: scFv
B15: Polypeptide No. 281 (scFv, V domains shown)
VH: QVQLVQSGAEVKKPGASVKVSCKASGYTFNSYGISWVRQAPGQGLEWMGIINPTGGSTTYAQKFQGRVTMTRDTSTSTVYMELSSLRSEDTAVYYCAKDPFVMDVWGQGTTVTVSS
VL: B13 VL with G51D, T54A, T57A, S93Y, S95T, L97Y, V105L
notes: scFv
B16: Polypeptide No. 268 (scFv, V domains shown)
VH: QVQLVQSGAEVKKPGSSVKVSCKASGGTFSTYALSWVRQAPGQGLEWMGGVIPVFGTTDYAHKFQGRVTITADESTSTAYMELSSLRSEDTAVYYCASMIIFGAGGWDAYYFQEWGQGTLVTVSS
VL: B13 VL with S30N, S31N, S32N, Y33Q, G51D, A52T, T54S, S93D, S94T, L97Y
notes: scFv
B17: Polypeptide No. 250 (scFv, V domains shown)
VH: QVQLVQSGAEVKKPGSSVKVSCKASGYTLTSFAMHWVRQAPGQGLEWMGRIIPMSGTANYAQKFQGRVTITADESTSTAYMELSSLRSEDTAVYYCASTSPDQYYYGMDVWGQGTTVTVSS
VL: B13 VL with S30G, Y33S, S93G, L97Y
notes: scFv
B18: Polypeptide No. 263 (scFv, V domains shown)
VH: QVQLVQSGAEVKKPGSSVKVSCKASGGTFSSYAISWVRQAPGQGLEWMGGIIPIVGVANYAQKLQGRVTITADESTSTAYMELSSLRSEDTAVYYCAKDIGGYPSDAFDIWGQGTTVTVSS
VL: B13 VL with G51D, A52V, S93G, L97I
notes: scFv
B19: Polypeptide No. 226 (scFv, V domains shown)
VH: QVQLVQSGAEVKKPGASVKVSCKASGYTFTGYYMHWVRQAPGQGLEWMGIIDPSGGSTSYAQKFQGRVTMTRDTSTSTVYMELSSLRSEDTAVYYCARDRSLLWSGVGGMDVWGQGTTVTVSS
VL: B4 VL with S50G, F92Y, S93G, F96Y
notes: scFv
B20: Polypeptide No. 282 (scFv, V domains shown)
VH: QVQLVQSGAEVKKPGASVKVSCKASGGTFSSYAISWVRQAPGQGLEWMGWMNPNSGDTGYAQKFQGRVTMTRDTSTSTVYMELSSLRSEDTAVYYCARDFEGGGWFDPWGQGTLVTVSS
VL: EIVMTQSPATLSVSPGERATLSCRASRSISDYLAWYQQKPGQAPRLLIYDASSRATGIPARFSGSGSGTEFTLTISSLQSEDFAVYYCQQYYTTPLTFGQGTKVEIKR
notes: scFv

What follows are binders tested against T1, huCD33-R69 stably expressed on Jurkat cells (human, UniProt P20138 18-364) (assay: FACS on cells;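 further: fixed Jurkat lines probed with myc-tagged scFv periplasmic extracts, anti-myc PE flow cytometry, PE MFI fold binned − <2, + 2–10, ++ 10–30, +++ >30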).
T1 construct: whole, on cells; >200,000 receptors per cell; also called CD33 WT; CD33^ARG69
T1 sequence (P20138 18-364): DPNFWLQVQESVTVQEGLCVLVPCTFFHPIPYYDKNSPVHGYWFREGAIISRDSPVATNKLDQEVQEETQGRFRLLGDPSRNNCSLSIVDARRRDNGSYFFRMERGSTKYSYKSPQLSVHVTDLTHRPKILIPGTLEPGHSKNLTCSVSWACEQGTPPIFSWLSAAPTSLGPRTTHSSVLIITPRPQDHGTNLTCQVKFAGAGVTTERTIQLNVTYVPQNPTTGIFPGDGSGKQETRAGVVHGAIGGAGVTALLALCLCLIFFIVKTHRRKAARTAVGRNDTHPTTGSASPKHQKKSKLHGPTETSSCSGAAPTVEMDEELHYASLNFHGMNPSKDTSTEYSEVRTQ

| Binder | FACS geometric mean fold change over Jurkat parental [fold] |
| --- | --- |
| B1 | > 30 |
| B2 | > 30 |
| B3 | 10 to 30 |
| B4 | 10 to 30 |
| B5 | > 30 |
| B6 | 10 to 30 |
| B7 | 10 to 30 |
| B8 | > 30 |

What follows are binders tested against T2, huCD33-G69 stably expressed on Jurkat cells (human, UniProt P20138 18-364) (assay: FACS on cells;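 further: fixed Jurkat lines probed with myc-tagged scFv periplasmic extracts, anti-myc PE flow cytometry, PE MFI fold binned − <2, + 2–10, ++ 10–30, +++ >30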).
T2 construct: whole, on cells; >200,000 receptors per cell; also called CD33 Mutant; CD33 R69G
T2 sequence (P20138 18-364 R69G): as the sequence (P20138 18-364) above, with R52G counted along it

| Binder | FACS geometric mean fold change over Jurkat parental [fold] |
| --- | --- |
| B1 | 10 to 30 |
| B2 | 10 to 30 |
| B3 | 10 to 30 |
| B4 | 10 to 30 |
| B5 | > 30 |
| B6 | 10 to 30 |
| B7 | 10 to 30 |
| B8 | > 30 |

These binders were tested against T3, huCLL1-K244-Avi-Tev-His (human, UniProt Q5QGZ9 65-265) (assay: BLI).
T3 construct: extracellular domain
T3 sequence (looked up): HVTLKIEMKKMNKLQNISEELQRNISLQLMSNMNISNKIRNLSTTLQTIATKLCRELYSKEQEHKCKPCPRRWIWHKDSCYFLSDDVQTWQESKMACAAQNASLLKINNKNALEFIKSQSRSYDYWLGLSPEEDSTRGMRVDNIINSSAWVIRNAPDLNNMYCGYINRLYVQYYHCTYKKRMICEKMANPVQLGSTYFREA

| Binder | binding result |
| --- | --- |
| B9 | binds |
| B10 | binds |

The binders below were run against T4, huCLL1-Q244-Avi-Tev-His (human, UniProt Q5QGZ9 65-265) (assay: BLI).
T4 construct: extracellular domain; also called CLL-1 K244Q
T4 sequence (looked up): T3 sequence (looked up) with K180Q

| Binder | binding result |
| --- | --- |
| B9 | binds |
| B10 | binds |

These binders were tested against T5, huFLT3-M227 stably expressed on Ramos cells (human, UniProt P36888 27-993) (assay: FACS on cells).
T5 construct: whole, on cells; also called FLT3 Mutant
T5 sequence (P36888 27-993 T227M): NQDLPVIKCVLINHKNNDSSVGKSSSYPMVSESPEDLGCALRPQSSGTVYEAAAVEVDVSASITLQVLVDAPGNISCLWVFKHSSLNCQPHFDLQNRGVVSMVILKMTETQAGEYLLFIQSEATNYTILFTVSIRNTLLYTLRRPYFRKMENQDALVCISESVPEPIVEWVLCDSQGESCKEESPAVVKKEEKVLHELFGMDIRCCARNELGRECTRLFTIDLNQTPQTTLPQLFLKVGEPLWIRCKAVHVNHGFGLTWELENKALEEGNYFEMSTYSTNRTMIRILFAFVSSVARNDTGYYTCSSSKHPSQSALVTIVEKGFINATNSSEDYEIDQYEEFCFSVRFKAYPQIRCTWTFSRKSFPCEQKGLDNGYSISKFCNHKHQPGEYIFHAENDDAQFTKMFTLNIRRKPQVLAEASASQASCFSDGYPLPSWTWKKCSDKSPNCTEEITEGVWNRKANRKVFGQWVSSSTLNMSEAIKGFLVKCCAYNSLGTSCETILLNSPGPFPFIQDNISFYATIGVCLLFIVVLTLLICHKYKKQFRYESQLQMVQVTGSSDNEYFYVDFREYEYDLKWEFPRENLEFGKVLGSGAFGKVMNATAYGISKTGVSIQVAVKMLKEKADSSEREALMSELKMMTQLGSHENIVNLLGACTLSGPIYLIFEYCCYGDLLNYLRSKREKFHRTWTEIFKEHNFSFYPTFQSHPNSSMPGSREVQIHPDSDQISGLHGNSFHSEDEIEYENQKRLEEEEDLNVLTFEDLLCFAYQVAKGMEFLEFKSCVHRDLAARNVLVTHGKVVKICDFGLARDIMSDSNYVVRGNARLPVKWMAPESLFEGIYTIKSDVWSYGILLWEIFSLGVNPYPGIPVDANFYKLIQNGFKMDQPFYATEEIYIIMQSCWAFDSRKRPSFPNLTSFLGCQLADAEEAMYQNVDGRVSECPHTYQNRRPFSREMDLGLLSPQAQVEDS
Protocol: For FLT3, Ramos cells were engineered to stably express either the huFLT3-T227 or huFLT3-M227 variant at >200,000 receptors per cell. Parental, huFLT3-T227, and huFLT3-M227 Ramos cell lines were stained with differing levels of CellTrace Violet Cell Proliferation Kit (ThermoFisher, cat. #C34557) to barcode each cell line. Barcoded Ramos cell lines were fixed with paraformaldehyde and incubated with myc-labeled scFv periplasmic extracts and a secondary anti-myc PE-conjugated monoclonal antibody. Appropriate positive and negative controls were used. Stained cells were analyzed by flow cytometry (CytoFLEX, Beckman Coulter, Inc.) and binding was assessed by change in PE mean fluorescence intensity (MFI) of the barcoded cell populations.

| Binder | FACS geometric mean fold change over Jurkat parental [fold] |
| --- | --- |
| B11 | 2 to 10 |
| B12 | 2 to 10 |
| B13 | 2 to 10 |
| B14 | 2 to 10 |
| B15 | 2 to 10 |
| B16 | 2 to 10 |
| B17 | 2 to 10 |
| B18 | 2 to 10 |
| B19 | 2 to 10 |
| B20 | 2 to 10 |
